From publication PMC8961631

Biological target: glycosylated myrosinase without GST-tag (produced in S. cerevisiae MGY70-myr) (broccoli)
Assay: SEC; Sephacryl S-200 HR column 0.7 x 30 cm, 1 mL of purified myrosinase fraction (1 mg/mL) loaded, 0.3 mL/min, 0.2 M Tris-HCl pH 7.4; mass from a calibration curve with protein standards; self-association, monomer to dimer

- stoichiometry N: 2
Substance: glycosylated myrosinase without GST-tag (produced in S. cerevisiae MGY70-myr) (enzyme)
